Among the data in publication PMC10772121 (Scientific Reports, 2024) are Kd, koff and kon values, retold here.

Conditions in all cases: both partners purified
One experiment addresses T1, KIR2DL3 D47N ectodomain (Homo sapiens, UniProt P43628-1, D47N).
T1 construct: also called KIR2DL3 D47N (293F); Var6; source: HEK 293F supernatant, purified (EDTA-resistant Ni-NTA, size exclusion chromatography)
Nature of the experiment: BLI; lirilumab (IgG1) loaded on AHC biosensors, KIR2DL3 D47N as analyte (peak concentration 500 nM); Octet RED384, 25 °C, 20 mM MOPS pH 7.5, 150 mM NaCl, 0.1% BSA, 0.02% Tween-20; steady state binding model because the 1:1 model fitted poorly; single replicates. (Biolayer interferometry detects binding as a change in optical thickness at a sensor tip.)

A further experiment deals with T2, KIR2DL3 ectodomain (Homo sapiens, UniProt P43628-1).
T2 construct: also called wild-type KIR2DL3; KIR2DL3 (293F); source: HEK 293F supernatant, purified (EDTA-resistant Ni-NTA, size exclusion chromatography)
Nature of the experiment: BLI; lirilumab (IgG1) loaded on AHC (anti-human IgG) biosensors, KIR protein as analyte (two-fold dilutions from 250 nM); Octet RED384, 25 °C, 20 mM MOPS pH 7.5, 150 mM NaCl, 0.1% BSA, 0.02% Tween-20; global 1:1 binding model, at least 4 curves; single replicates.

Another experiment has as its target T3, KIR2DL3 H50R ectodomain (Homo sapiens, UniProt P43628-1, H50R).
T3 construct: also called KIR2DL3 H50R (293F); Var7; source: HEK 293F supernatant, purified (EDTA-resistant Ni-NTA, size exclusion chromatography)
The experiment is described as above.

For experiment [1], the target named is T4, KIR2DL1 (Sino Biological 13,145-H08H) (Homo sapiens; allele of bought protein …, UniProt P43626-1).
T4 construct: human KIR2DL1, commercially sourced recombinant protein; The catalogue product is recalled to be the extracellular domain with a C-terminal His tag; also called KIR2DL1 (293, Sino Biological); source: bought: Sino Biological 13,145-H08H (293)
The description is as above.

The next experiment has as its target T5, KIR2DL3 F45Y ectodomain (Homo sapiens, UniProt P43628-1, F45Y).
T5 construct: also called KIR2DL3 F45Y (293F); Var4; source: HEK 293F supernatant, purified (EDTA-resistant Ni-NTA, size exclusion chromatography)
The description is as above.

For a further experiment, the target named is T6, KIR2DL3 F45Y (Homo sapiens, UniProt P43628-1, F45Y).
T6 construct: also called KIR2DL3 F45Y variant; source: HEK 293F, purified as the CHO-S protein (HisTrap FF)
Nature of the experiment: BLI; lirilumab (IgG1) loaded on anti-human IgG (AHC) biosensors, KIR protein as analyte, 6 two-fold dilutions from 250 nM; 25 °C; 20 mM MOPS pH 7.5, 150 mM NaCl, 0.1% BSA, 0.02% Tween-20; global 1:1 fit; average of 3 technical replicates.

The target of experiment [2] is T7, Commercially sourced KIR2DL1 (Sino Biological 13,145-H08H) (Homo sapiens; allele of bought protein …, UniProt P43626-1).
T7 construct: KIR2DL1, commercially sourced recombinant protein; source: bought: Sino Biological
Described as above.

For experiment [3], the target named is T8, wild-type KIR2DL3 ectodomain (HEK 293F) (Homo sapiens, UniProt P43628-1).
T8 construct: Same construct as m3 but expressed in HEK 293F cells for BLI; source: HEK 293F, purified as the CHO-S protein (HisTrap FF)
Described as above.

The target in the next experiment is T9, KIR2DL3 H50R (Homo sapiens, UniProt P43628-1, H50R).
T9 construct: also called KIR2DL3 H50R variant; source: HEK 293F, purified as the CHO-S protein (HisTrap FF)
The description is as above.

A further experiment has as its target T10, KIR2DL3 D47N (Homo sapiens, UniProt P43628-1, D47N).
T10 construct: also called KIR2DL3 D47N variant; KIR2DL3 D47N mutant; source: HEK 293F, purified as the CHO-S protein (HisTrap FF)
Put plainly: BLI; lirilumab (IgG1) loaded on anti-human IgG (AHC) biosensors, KIR2DL3 D47N as analyte, two-fold dilutions from 500 nM; 25 °C; 20 mM MOPS pH 7.5, 150 mM NaCl, 0.1% BSA, 0.02% Tween-20; steady state equilibrium model (kinetic fit unsuccessful); average of 3 technical replicates.

Values joined by “and” are separate entries in the source; they are usually repeats but may differ in a detail not shown here. Equal values may be shown once.

T4 sequence (P43626 22-245): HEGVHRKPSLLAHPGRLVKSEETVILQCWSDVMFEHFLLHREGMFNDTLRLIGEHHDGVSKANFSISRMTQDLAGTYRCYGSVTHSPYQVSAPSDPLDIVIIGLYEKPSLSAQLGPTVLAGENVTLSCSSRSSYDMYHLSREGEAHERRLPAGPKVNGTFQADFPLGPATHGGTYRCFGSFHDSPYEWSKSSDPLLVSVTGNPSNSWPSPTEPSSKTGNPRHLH
T2 sequence (P43628 22-245): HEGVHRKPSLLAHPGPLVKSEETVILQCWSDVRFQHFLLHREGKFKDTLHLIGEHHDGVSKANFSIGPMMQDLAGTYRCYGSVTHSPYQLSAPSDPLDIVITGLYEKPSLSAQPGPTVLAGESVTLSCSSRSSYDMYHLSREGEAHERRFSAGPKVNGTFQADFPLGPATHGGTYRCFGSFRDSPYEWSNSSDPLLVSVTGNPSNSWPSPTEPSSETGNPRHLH
T3 sequence (P43628 22-245 H71R): as the sequence (P43628 22-245) above, with H50R counted along it
T5 sequence (P43628 22-245 F66Y): as the sequence (P43628 22-245) above, with F45Y counted along it
T1 sequence (P43628 22-245 D68N): as the sequence (P43628 22-245) above, with D47N counted along it
T10 sequence (P43628 22-245 D68N): as the sequence (P43628 22-245) above, with D47N counted along it
T7 sequence (P43626 22-245): as the sequence (P43626 22-245) above
T8 sequence (P43628 22-245): as the sequence (P43628 22-245) above
T9 sequence (P43628 22-245 H71R): as the sequence (P43628 22-245) above, with H50R counted along it
T6 sequence (P43628 22-245 F66Y): as the sequence (P43628 22-245) above, with F45Y counted along it

B1: lirilumab (IgG1) (antibody, V domains shown)
VH: QVQLVQSGAEVKKPGSSVKVSCKASGGTFSFYAISWVRQAPGQGLEWMGGFIPIFGAANYAQKFQGRVTITADESTSTAYMELSSLRSDDTAVYYCARIPSGSYYYDYDMDVWGQGTTVTVSS
VL: EIVLTQSPVTLSLSPGERATLSCRASQSVSSYLAWYQQKPGQAPRLLIYDASNRATGIPARFSGSGSGTDFTLTISSLEPEDFAVYYCQQRSNWMYTFGQGTKLEIK
What is called Kd is the constant that tells how readily two partners part at equilibrium. A word on the koff: it is the first-order rate constant of dissociation. High values mean a short-lived complex, low ones a long-lived complex. For orientation: kon means a measure of how fast the partners come together. A higher kon goes with faster complex formation. Regarding B1, the Kd was 1400 nM and 1900 nM in the experiment with KIR2DL3 D47N ectodomain; 1.64 nM and 2.83 nM and 3.78 nM with KIR2DL3 ectodomain; 7.98 nM and 10.6 nM and 15 nM in the experiment with KIR2DL3 H50R ectodomain; 11.5 nM and 9.6 nM and 8.8 nM in experiment [1]; 10.2 nM and 10.8 nM and 8.5 nM with KIR2DL3 F45Y ectodomain. Further, the off-rate (koff) is 0.000366 s⁻¹ and 0.000622 s⁻¹ and 0.000892 s⁻¹ with KIR2DL3 ectodomain; 0.00195 s⁻¹ and 0.00244 s⁻¹ and 0.00317 s⁻¹ with KIR2DL3 H50R ectodomain; 0.000954 s⁻¹ and 0.000995 s⁻¹ and 0.000947 s⁻¹ in experiment [1]; 0.00125 s⁻¹ and 0.00155 s⁻¹ and 0.00145 s⁻¹ with KIR2DL3 F45Y ectodomain. The kon with KIR2DL3 ectodomain is 224000 M⁻¹ s⁻¹ and 220000 M⁻¹ s⁻¹ and 236000 M⁻¹ s⁻¹; in the experiment with KIR2DL3 H50R ectodomain, 244000 M⁻¹ s⁻¹ and 231000 M⁻¹ s⁻¹ and 212000 M⁻¹ s⁻¹; in experiment [1], 83200 M⁻¹ s⁻¹ and 104000 M⁻¹ s⁻¹ and 107000 M⁻¹ s⁻¹; in the experiment with KIR2DL3 F45Y ectodomain, 122000 M⁻¹ s⁻¹ and 144000 M⁻¹ s⁻¹ and 170000 M⁻¹ s⁻¹.

B2: lirilumab (IgG1) (antibody, V domains shown)
VH: QVQLVQSGAEVKKPGSSVKVSCKASGGTFSFYAISWVRQAPGQGLEWMGGFIPIFGAANYAQKFQGRVTITADESTSTAYMELSSLRSDDTAVYYCARIPSGSYYYDYDMDVWGQGTTVTVSS
VL: EIVLTQSPVTLSLSPGERATLSCRASQSVSSYLAWYQQKPGQAPRLLIYDASNRATGIPARFSGSGSGTDFTLTISSLEPEDFAVYYCQQRSNWMYTFGQGTKLEIK
B2: the Kd was found to be 9.9 nM in the experiment with KIR2DL3 F45Y; 10 nM in [2]; 2.8 nM in experiment [3]; 11.2 nM in the experiment with KIR2DL3 H50R; 1650 nM in the experiment with KIR2DL3 D47N.
